Source: patent US11352401

Columns and labels:
[1] = target: T1, HLA-B*07 (human); assay: UV peptide-exchange ELISA; ++++ = yield >75%
T1 construct: MHC monomer made peptide-receptive by UV cleavage of a UV-sensitive ligand; also called peptide-receptive MHC class I monomer

[2] = target: T2, HLA-A*24 (human); assay: UV peptide-exchange ELISA; ++++ = yield >75%
T2 construct: MHC monomer made peptide-receptive by UV cleavage of a UV-sensitive ligand; also called peptide-receptive MHC class I monomer

## SPRWLPVSL [SPRWLPVSL (SEQ ID NO: 242)]
[1]
  peptide exchange yield: > 75%

## SPSVSQLSVL [SPSVSQLSVL (SEQ ID NO: 220)]
[1]
  peptide exchange yield: > 75%

## GPQPWHAAL [GPQPWHAAL (SEQ ID NO: 224)]
[1]
  peptide exchange yield: > 75%

## LPFDGPGGIL [LPFDGPGGIL (SEQ ID NO: 225)]
[1]
  peptide exchange yield: > 75%

## YPRGNHWAVGHL [YPRGNHWAVGHL (SEQ ID NO: 228)]
[1]
  peptide exchange yield: > 75%

## SARLATDAL [SARLATDAL (SEQ ID NO: 241)]
[1]
  peptide exchange yield: > 75%

## RPIENRILIL [RPIENRILIL (SEQ ID NO: 243)]
[1]
  peptide exchange yield: > 75%

## YPRGNHWAVGH [YPRGNHWAVGH (SEQ ID NO: 227)]
[1]
  peptide exchange yield: > 75%

## KPGPPWAAF [KPGPPWAAF (SEQ ID NO: 238)]
[1]
  peptide exchange yield: > 75%

## KFLGPAEHLTF [KFLGPAEHLTF (SEQ ID NO: 378)]
[2]
  peptide exchange yield: > 75%

## SPRMSGLLSQT [SPRMSGLLSQT (SEQ ID NO: 226)]
[1]
  peptide exchange yield: > 75%

## TYSKKHFRI [TYSKKHFRI (SEQ ID NO: 381)]
[2]
  peptide exchange yield: > 75%

## KYVKVFDKF [KYVKVFDKF (SEQ ID NO: 384)]
[2]
  peptide exchange yield: > 75%

## VYVGAVNRI [VYVGAVNRI (SEQ ID NO: 377)]
[2]
  peptide exchange yield: > 75%

## VYSDLHAFYY [VYSDLHAFYY (SEQ ID NO: 375)]
[2]
  peptide exchange yield: > 75%

## MPLKHYLLL [MPLKHYLLL (SEQ ID NO: 235)]
[1]
  peptide exchange yield: > 75%

## RVRGGEDGDRAL [RVRGGEDGDRAL (SEQ ID NO: 236)]
[1]
  peptide exchange yield: > 75%

## TYCQNIKEF [TYCQNIKEF (SEQ ID NO: 83)]
[2]
  peptide exchange yield: > 75%

## YPKDIYSSF [YPKDIYSSF (SEQ ID NO: 223)]
[1]
  peptide exchange yield: > 75%

## YVPSASLFML [YVPSASLFML (SEQ ID NO: 239)]
[1]
  peptide exchange yield: > 75%

## RFLPSPVVI [RFLPSPVVI (SEQ ID NO: 82)]
[2]
  peptide exchange yield: > 75%

## KYVKDFHKF [KYVKDFHKF (SEQ ID NO: 376)]
[2]
  peptide exchange yield: > 75%

## RPRALRDLQL [RPRALRDLQL (SEQ ID NO: 231)]
[1]
  peptide exchange yield: > 75%

## VPDVAQFVL [VPDVAQFVL (SEQ ID NO: 221)]
[1]
  peptide exchange yield: > 75%

## RAKNAGVTI [RAKNAGVTI (SEQ ID NO: 234)]
[1]
  peptide exchange yield: > 75%

## SPREVTTVL [SPREVTTVL (SEQ ID NO: 240)]
[1]
  peptide exchange yield: > 75%

## KPYQGNPTF [KPYQGNPTF (SEQ ID NO: 233)]
[1]
  peptide exchange yield: > 75%

## VYNDHSIYVW [VYNDHSIYVW (SEQ ID NO: 386)]
[2]
  peptide exchange yield: > 75%

## MYINEVERL [MYINEVERL (SEQ ID NO: 385)]
[2]
  peptide exchange yield: > 75%

## RPRALRDLQLL [RPRALRDLQLL (SEQ ID NO: 232)]
[1]
  peptide exchange yield: > 75%
